Source: the supplement of paper PMC7125110
± gives the standard error. Fewer inactive variants are shown than the library holds.

B1: glmS ribozyme (parent)
chain: AUAAAAGCGCCAGAACUACAGAAAUGUAGUUGACGAGGAGGAGGUUUAUCGAAUUUUCGGCGGAUGCCUCCAAA

Tests used:
Details in all cases: with glucosamine-6-phosphate
[1] = variants of: B1; assay: self-cleavage kobs at 40 uM GlcN6P; higher = faster cleavage; RNA array
Procedure, shortened: (§1)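 Barcoded glmS ribozyme variants on sequenced MiSeq chips were transcribed in situ by E. coli RNA polymerase and tracked through a hybridised Cy3 probe at 37 °C. Glucosamine-6-phosphate (40 μM to 10 mM) in HEPES/KCl/Mg(OAc)2 buffer was flowed in, and tiles were imaged over ~14 h. Signals were normalised to baseline and to non-cleaving reference variants; per-tile medians were fit to one- or two-exponential decays to give kobs. kcat and KM came from weighted Michaelis–Menten fits across concentrations.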

[2] = variants of: B1; assay: self-cleavage kobs at 160 uM GlcN6P; higher = faster cleavage; RNA array
Procedure, shortened: as §1

[3] = variants of: B1; assay: self-cleavage kobs at 640 uM GlcN6P; higher = faster cleavage; RNA array
Procedure, shortened: as §1

[4] = variants of: B1; assay: self-cleavage kobs at 2500 uM GlcN6P; higher = faster cleavage; RNA array
Procedure, shortened: as §1

[5] = variants of: B1; assay: self-cleavage kobs at 10000 uM GlcN6P; higher = faster cleavage; RNA array
Procedure, shortened: as §1

Variant	self-cleavage kobs at 40 uM GlcN6P [1] [s⁻¹]	self-cleavage kobs at 160 uM GlcN6P [2] [s⁻¹]	self-cleavage kobs at 640 uM GlcN6P [3] [s⁻¹]	self-cleavage kobs at 2500 uM GlcN6P [4] [s⁻¹]	self-cleavage kobs at 10000 uM GlcN6P [5] [s⁻¹]
U55G C61A G66C C70A	0.000162 ± 4.4e-05	0.000108 ± 2.1e-05	0.000153 ± 3.1e-05	8.3e-05 ± 1.7e-05	–
U54G G62C U69C	< 1e-05	–	–	–	< 1e-05
A53G U65C	3.6e-05 ± 1.8e-05	–	0.000302 ± 7.9e-05	0.000224 ± 9.5e-05	0.000644 ± 0.00014
A52G G60C	< 1e-05	< 1e-05	< 1e-05	< 1e-05	–
C61G U65C G66A	< 1e-05	–	–	–	< 1e-05
A53U U55A C67G	0.000155 ± 4.4e-05	–	–	–	0.00212 ± 0.00067
U55G C70U	0.0011 ± 0.00013	0.00151 ± 0.00031	0.0043 ± 0.0011	–	–
A52C G62U C71A	< 1e-05	–	–	< 1e-05	–
A6C A36G U47G	–	< 1e-05	< 1e-05	–	–
G62A C71A	< 1e-05	–	–	–	< 1e-05
U55A C67A	0.000444 ± 0.00015	–	0.00115 ± 0.00052	–	0.00563 ± 0.0018
U55A C67U	0.000401 ± 8.2e-05	0.000667 ± 0.00022	0.00589 ± 0.0022	–	0.0154 ± 0.0038
A6C G29C C58G C71A	–	6.35e-05 ± 1.9e-05	0.000108 ± 4.5e-05	–	–
A6C G40U C61A	–	< 1e-05	–	< 1e-05	< 1e-05
G51C G60U	< 1e-05	< 1e-05	< 1e-05	–	< 1e-05
C71U	0.00128 ± 3.7e-05	0.00366 ± 0.00023	0.00716 ± 0.00034	0.0256 ± 0.0014	0.0553 ± 0.0027
A53G U54G	0.00114 ± 0.00028	0.00165 ± 0.00047	0.00511 ± 0.0011	0.00388 ± 0.0012	0.081 ± 0.028
A53G U54A	0.000851 ± 0.00024	0.00267 ± 0.00057	0.0083 ± 0.0014	0.0106 ± 0.0043	0.0724 ± 0.027
G60U G62A C70U	< 1e-05	–	–	–	< 1e-05
G51A U54A U55A	< 1e-05	–	–	–	–
U56G G63C	< 1e-05	< 1e-05	< 1e-05	–	< 1e-05

Variant	self-cleavage kobs at 40 uM GlcN6P [1] [s⁻¹]	self-cleavage kobs at 160 uM GlcN6P [2] [s⁻¹]	self-cleavage kobs at 640 uM GlcN6P [3] [s⁻¹]	self-cleavage kobs at 2500 uM GlcN6P [4] [s⁻¹]	self-cleavage kobs at 10000 uM GlcN6P [5] [s⁻¹]
G51U A53C C67G	< 1e-05	–	–	–	–
A6G G7A G43C	–	< 1e-05	< 1e-05	< 1e-05	< 1e-05
U56A U65G	3.75e-05 ± 1.4e-05	–	0.000348 ± 0.00011	–	0.00196 ± 0.00027
U55A G62U	< 1e-05	–	< 1e-05	< 1e-05	< 1e-05
U2C C16G A53C	–	4.66e-05 ± 1.6e-05	0.000137 ± 1.9e-05	0.000285 ± 4.6e-05	–
U55C U56A	0.000256 ± 4.6e-05	–	–	0.0131 ± 0.0031	0.0148 ± 0.0032
A6G C67U C71U	–	< 1e-05	–	–	–
U54G U65G C67G	3.01e-05 ± 1.5e-05	–	–	–	0.00213 ± 0.00029
G59U C61U	< 1e-05	–	< 1e-05	–	< 1e-05
G59U C61A	< 1e-05	< 1e-05	< 1e-05	–	< 1e-05
G62A G66U	< 1e-05	–	< 1e-05	< 1e-05	< 1e-05
G59C C61G	< 1e-05	< 1e-05	–	–	< 1e-05
A6G A12C G40A	–	< 1e-05	< 1e-05	< 1e-05	–
U69G	0.000371 ± 0.00012	5.87e-05 ± 2.4e-06	0.000488 ± 0.00012	0.00011 ± 4.1e-05	0.000467 ± 7.8e-05
U69A	0.000341 ± 7.7e-05	0.000534 ± 0.00018	0.000282 ± 3.1e-05	0.00219 ± 0.0004	0.000299 ± 4.6e-05
G63A A64C	< 1e-05	< 1e-05	< 1e-05	< 1e-05	–
C58A U65A C67G	< 1e-05	–	–	–	–
U56A U69C	0.000222 ± 5.9e-05	0.000288 ± 6e-05	0.000693 ± 0.00019	0.000572 ± 0.00015	0.00286 ± 0.00081
A52C C71G	< 1e-05	–	< 1e-05	< 1e-05	–
A53G C71U	0.000921 ± 0.00014	0.0017 ± 0.00029	0.00661 ± 0.0013	–	0.0402 ± 0.013
